Among the data in patent US12339286B2, “Metal-reducing enzymatic tag for optical and electron microscopy” (Colorado State University Research Foundation, priority 2018, dated 2025) are Km, kcat and eluted phage titer (pfu) values, retold here.

Where “and” joins values, the source holds several entries; their conditions need not be identical. Equal values may be shown once. Ends that are not written are not given here.

Assay [1] concerns the target Pseudomonas moraviensis stanleyea GRLMR (glutathione reductase-like metalloid reductase), without SeBP (Pseudomonas moraviensis, UniProt A0A2A2PF31). The experiment in a line: KM and kcat study: NADPH consumption at 340 nm, V0 vs substrate concentration. The format is biochemical. Conditions: substrate HNaSeO3; PBS, pH 7.4; 13 μg of enzyme; 200 μM NADPH; 0.05 mM-2 mM substrate. The text has this: (§1) Because of the dramatic difference in SeBP size, morphology and aggregation state that depends on SeBP concatenation to GRLMR, whether this concatenation also alters the kinetic properties of the enzyme was investigated. To explore this possibility, NADPH concentrations were monitored spectroscopically during GRLMR enzymatic reactions to establish fundamental enzymatic kinetics in the presence and absence of the peptide. FIG. 4 depicts the plots of V0s attained by the GRLMR with and without SeBP over a range of substrate concentrations.
(§2) Initial velocities (V0) of the GRLMR-SeBP were performed in various concentrations of HNaSeO3 or GSSG while monitoring 340 nm correlating to NADPH absorbance. The reactions were run in PBS, pH 7.4 and with 13 μg of enzyme with substrate SeO3^2− (1.5 μg of enzyme with substrate GSSG) and 200 μM of NADPH with 0.05 mM-2 mM of substrate. Enzymatic V0s were plotted against substrate concentration in OriginPro from which KM and kcat could then be calculated.

For assay [2], the target named is T1, Pseudomonas moraviensis stanleyea GRLMR-SeBP (glutathione reductase-like metalloid reductase, GRLMR, with the selenium nanoparticle binding peptide SeBP/SeBP1, (Pseudomonas moraviensis, UniProt A0A2A2PF31, INS452LTPHKHHKHLHA)).
T1 sequence (A0A2A2PF31 1-452 INS452LTPHKHHKHLHA): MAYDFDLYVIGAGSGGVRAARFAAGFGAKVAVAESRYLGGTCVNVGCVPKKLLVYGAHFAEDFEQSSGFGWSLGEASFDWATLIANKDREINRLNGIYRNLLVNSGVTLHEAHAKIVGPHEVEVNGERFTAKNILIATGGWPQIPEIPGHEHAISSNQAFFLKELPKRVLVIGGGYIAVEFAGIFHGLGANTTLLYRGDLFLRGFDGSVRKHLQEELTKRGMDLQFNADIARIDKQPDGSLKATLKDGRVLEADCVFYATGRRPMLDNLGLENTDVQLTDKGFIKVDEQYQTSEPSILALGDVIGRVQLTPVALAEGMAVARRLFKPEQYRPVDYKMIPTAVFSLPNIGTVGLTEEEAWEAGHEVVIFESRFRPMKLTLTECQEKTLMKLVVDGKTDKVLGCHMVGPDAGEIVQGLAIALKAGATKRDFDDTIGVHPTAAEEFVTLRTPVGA
The description is as above. The following applies: substrate HNaSeO3; PBS, pH 7.4; 13 μg of enzyme; 200 μM NADPH; 0.05 mM-2 mM substrate. The class given is biochemical.
Source text: as §1, §2

For assay [3], the target named is glutathione reductase-like metalloid reductase (GRLMR) (Pseudomonas moraviensis stanleyae). Briefly: negative binding assay: phage (input 10^10 pfu) on wells coated with unreacted GRLMR, acid-eluted phage titered on E. coli.

Chain of Wild Type M13 phage (no inserted sequence) (P69168 19-424 limits assumed): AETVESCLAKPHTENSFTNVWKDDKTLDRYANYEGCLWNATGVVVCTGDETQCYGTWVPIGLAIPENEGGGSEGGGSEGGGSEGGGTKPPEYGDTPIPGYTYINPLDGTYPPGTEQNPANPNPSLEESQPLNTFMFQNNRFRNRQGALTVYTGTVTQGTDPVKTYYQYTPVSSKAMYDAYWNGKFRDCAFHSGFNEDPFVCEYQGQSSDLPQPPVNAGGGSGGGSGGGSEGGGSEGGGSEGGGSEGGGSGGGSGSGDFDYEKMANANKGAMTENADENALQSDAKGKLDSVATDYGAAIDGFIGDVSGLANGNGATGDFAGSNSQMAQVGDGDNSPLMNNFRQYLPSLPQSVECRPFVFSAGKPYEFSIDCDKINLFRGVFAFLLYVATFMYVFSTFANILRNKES

Usually Km stands for the concentration of substrate that gives half-maximal velocity. What is called kcat is the number of substrate molecules converted per active site and unit of time at saturation. As for `O=[Se]([O-])O.[Na+]` [HNaSeO3], in assay [1], the Km came to 1920 ± 1280 µM; the kcat is 0.38038 ± 0.1473 s⁻¹ and 0.38038 s⁻¹. Further, in assay [2], the Km is 217 ± 57 µM; the kcat was 0.67193 ± 0.04143 s⁻¹ and 0.67193 s⁻¹.
In turn, “Wild Type M13 phage (no inserted sequence) (from UniProt P69168 19-424)” had an eluted phage titer (pfu) in assay [3] of 150000 pfu.
The same measure, in the same setting: the value for THYNPLRINPIT-{M13 pIII} (peptide, not shown: large carriers, also: displayed on M13 phage pIII, linker not given here) [SeBP5 (…) displayed on M13 phage] was 680000 pfu; that for GWHSPHAHWRVK-{M13 pIII} (peptide, not shown: large carriers, also: displayed on M13 phage pIII, linker not given here) [SeBP4 (…) displayed on M13 phage] was 330000 pfu.
The same measure, in the same setting: with WPRHHWHTNYMR-{M13 pIII} (peptide, not shown: large carriers, also: displayed on M13 phage pIII, linker not given here) [SeBP3 (…) displayed on M13 phage] the figure was 3.9e+08 pfu.
On the same count and under the same terms, with GPHHMHHHRTHH-{M13 pIII} (peptide, not shown: large carriers, also: displayed on M13 phage pIII, linker not given here) [SeBP2 (…) displayed on M13 phage] the figure was 2.1e+09 pfu.
